# Values of other authors in PMC7510350.
# How the values were obtained:
# SufA (Escherichia coli) = SufA (Escherichia coli) (UniProt P77667)
# IscA (Escherichia coli) = IscA (Escherichia coli) (UniProt P0AAC8)
# Sequence of UniProt P0AAC8 (P0AAC8 whole entry): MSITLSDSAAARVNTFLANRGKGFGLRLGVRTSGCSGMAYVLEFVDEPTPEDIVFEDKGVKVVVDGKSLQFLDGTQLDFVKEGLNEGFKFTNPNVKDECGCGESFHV
# Sequence of UniProt P77667 (P77667 whole entry): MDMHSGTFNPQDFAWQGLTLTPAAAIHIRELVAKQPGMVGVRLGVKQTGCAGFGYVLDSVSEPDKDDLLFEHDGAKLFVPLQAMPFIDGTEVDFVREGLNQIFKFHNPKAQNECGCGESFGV
substance,measurement,setting,value
ErpA (from UniProt P0ACC3),Kd,SufA (Escherichia coli),902 µM
same,Kd,IscA (Escherichia coli),40 µM
